In paper doi:10.1101/2023.02.03.527086:

Target: T1, interferon regulatory factor 3 (IRF3) (human (endogenous in AC16)), Q14653
T1 chain: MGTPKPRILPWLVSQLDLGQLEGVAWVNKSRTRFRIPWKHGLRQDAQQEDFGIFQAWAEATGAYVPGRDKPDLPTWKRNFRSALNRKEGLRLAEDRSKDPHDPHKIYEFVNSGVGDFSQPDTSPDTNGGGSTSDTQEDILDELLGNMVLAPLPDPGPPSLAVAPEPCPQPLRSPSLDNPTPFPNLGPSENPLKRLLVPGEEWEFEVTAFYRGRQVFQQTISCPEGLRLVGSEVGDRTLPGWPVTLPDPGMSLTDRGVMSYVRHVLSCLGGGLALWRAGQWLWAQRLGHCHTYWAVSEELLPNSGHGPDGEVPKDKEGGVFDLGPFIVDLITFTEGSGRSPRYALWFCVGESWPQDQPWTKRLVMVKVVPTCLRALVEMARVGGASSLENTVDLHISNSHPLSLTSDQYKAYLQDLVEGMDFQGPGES
Experiment: native gel or EMSA
Conditions: remark: other sources report otherwise

B1: interferon regulatory factor 3 (IRF3), Q14653 1-427 (natural protein)
chain: MGTPKPRILPWLVSQLDLGQLEGVAWVNKSRTRFRIPWKHGLRQDAQQEDFGIFQAWAEATGAYVPGRDKPDLPTWKRNFRSALNRKEGLRLAEDRSKDPHDPHKIYEFVNSGVGDFSQPDTSPDTNGGGSTSDTQEDILDELLGNMVLAPLPDPGPPSLAVAPEPCPQPLRSPSLDNPTPFPNLGPSENPLKRLLVPGEEWEFEVTAFYRGRQVFQQTISCPEGLRLVGSEVGDRTLPGWPVTLPDPGMSLTDRGVMSYVRHVLSCLGGGLALWRAGQWLWAQRLGHCHTYWAVSEELLPNSGHGPDGEVPKDKEGGVFDLGPFIVDLITFTEGSGRSPRYALWFCVGESWPQDQPWTKRLVMVKVVPTCLRALVEMARVGGASSLENTVDLHISNSHPLSLTSDQYKAYLQDLVEGMDFQGPGES
With B1 the stoichiometry N was 2.
